One experiment deals with rat PTH2 receptor (rat, UniProt P70555 25-546). The experiment in a line: cell-based or functional assay.
For another experiment, the target named is T1, human glucagon receptor (human, UniProt P47871 26-477).
T1 construct: whole, on cells
The experiment in a line: displacement of [125I]glucagon, intact COS-7 cells. A general note: Loss of bound radioactivity is the signal in a displacement assay; it reports binding, not function.

rat PTH2 receptor, sequence (P70555 25-546): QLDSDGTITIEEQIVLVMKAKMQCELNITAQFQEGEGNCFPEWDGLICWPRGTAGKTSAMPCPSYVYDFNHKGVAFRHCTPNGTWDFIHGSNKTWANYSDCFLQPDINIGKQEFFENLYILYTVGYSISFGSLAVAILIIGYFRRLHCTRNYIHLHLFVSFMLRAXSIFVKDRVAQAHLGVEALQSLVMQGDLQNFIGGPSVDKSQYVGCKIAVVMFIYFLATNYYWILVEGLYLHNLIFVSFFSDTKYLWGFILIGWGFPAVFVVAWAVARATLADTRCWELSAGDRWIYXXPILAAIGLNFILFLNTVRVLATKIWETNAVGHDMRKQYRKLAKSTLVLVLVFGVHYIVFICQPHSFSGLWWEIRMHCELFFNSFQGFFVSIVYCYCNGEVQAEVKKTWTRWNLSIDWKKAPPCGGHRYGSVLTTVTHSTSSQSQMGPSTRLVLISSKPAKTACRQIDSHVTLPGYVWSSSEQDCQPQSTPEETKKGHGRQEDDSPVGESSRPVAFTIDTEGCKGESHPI
T1 sequence (P47871 26-477): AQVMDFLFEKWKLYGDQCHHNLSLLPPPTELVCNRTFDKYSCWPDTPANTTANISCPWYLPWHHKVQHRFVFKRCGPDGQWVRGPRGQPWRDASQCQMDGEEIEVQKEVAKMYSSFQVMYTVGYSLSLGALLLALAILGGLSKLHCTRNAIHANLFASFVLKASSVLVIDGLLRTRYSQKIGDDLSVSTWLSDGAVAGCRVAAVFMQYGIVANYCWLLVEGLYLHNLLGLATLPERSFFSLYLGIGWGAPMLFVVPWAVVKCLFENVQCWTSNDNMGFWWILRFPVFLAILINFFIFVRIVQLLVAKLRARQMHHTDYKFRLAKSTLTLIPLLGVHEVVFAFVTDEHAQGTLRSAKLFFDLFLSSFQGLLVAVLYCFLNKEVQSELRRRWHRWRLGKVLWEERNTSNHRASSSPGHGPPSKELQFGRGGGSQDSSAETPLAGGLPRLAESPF

B1: tuberinfundibular peptide of 39 residues (TIP39), bovine sequence, synthetic (peptide)
peptide: SLALADDAAFRERARLLAALERRHWLNSYMHKLLVLDAP
notes: Chemically synthesized 39 residue peptide (Anaspec or Biomolecules Midwest); also called bTIP39; synthetic hypothalamic peptide
B1: the “maximal effect against PTH” value in the experiment with rat PTH2 receptor is around 3 fold. In the experiment with human glucagon receptor, the binding result is “no binding (tested: 1 µM)”.

The values above are taken from US20030032096A1 (US Dept. of Health and Human Services, published 2003).
